Patent publication US8974774

Molecular target: carcinoembryonic antigen (human) (UniProt P06731)
Chain of UniProt P06731 (P06731 35-702): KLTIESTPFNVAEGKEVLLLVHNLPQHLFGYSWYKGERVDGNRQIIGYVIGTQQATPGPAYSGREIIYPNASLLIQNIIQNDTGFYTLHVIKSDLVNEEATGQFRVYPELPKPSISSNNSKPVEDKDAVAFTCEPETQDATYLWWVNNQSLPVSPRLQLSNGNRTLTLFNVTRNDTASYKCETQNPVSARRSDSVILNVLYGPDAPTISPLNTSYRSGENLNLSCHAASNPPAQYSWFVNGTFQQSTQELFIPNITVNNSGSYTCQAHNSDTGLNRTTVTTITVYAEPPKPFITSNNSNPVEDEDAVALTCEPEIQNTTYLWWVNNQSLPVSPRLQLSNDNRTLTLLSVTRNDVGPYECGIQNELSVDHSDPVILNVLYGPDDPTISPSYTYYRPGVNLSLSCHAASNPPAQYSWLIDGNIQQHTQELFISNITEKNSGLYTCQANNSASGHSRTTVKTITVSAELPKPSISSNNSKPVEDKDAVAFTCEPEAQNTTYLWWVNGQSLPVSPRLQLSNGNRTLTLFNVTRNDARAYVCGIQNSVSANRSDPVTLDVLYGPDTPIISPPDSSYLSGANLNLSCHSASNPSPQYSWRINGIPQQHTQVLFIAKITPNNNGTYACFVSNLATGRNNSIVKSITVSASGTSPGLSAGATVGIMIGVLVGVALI

## Monoclonal antibody to carcinoembryonic antigen (CEA; clone CD66e, US Biological) covalently conjugated to anionic polyaspartate (3K MW)
  percent of colon carcinoma cells positive for fluorescein signal: 87.6%
